The text below walks through data of patent US20190002846A1, “POLYPEPTIDES HAVING DEMETHYLATING ACTIVITY” (Genencor International B.V., priority 2015, published 2019).

Data set [1] in a line: Catechol oxidase activity assay: initial rate of 3-methoxycatechol oxidation at 400 nm (pH, copper and temperature optima). Type of data set: biochemical. How it is done:
PPO activity was determined by measuring the initial rate of 3-methoxycatechol oxidation at 400 nm (extinction coefficient used: ε 1200 M^−1cm^−1). One unit of activity is defined as the amount of PPO activity that oxidizes 1 μmol of 3-methoxycatechol to quinone per minute. Substrate was used at a concentration of 4 mM.
The pH optima were determined by measuring the initial rate of 3-methoxycatechol oxidation with varying pHs, at room temperature and using a CuSO4 concentration of 10 μM. The pH was varied in the range of pH3-9 using Carmody buffers. Enzyme loading was applied resulting in A400 absorbance values in the range of 0.1-1. Protein concentration was determined using the BCA method.
Optimal copper concentrations for the PPOs were determined at the optimal pH by varying the concentration of CuSO4 in the range of 1-1000 μM. In these experiments the pH was controlled using 50 mM Bis-Tris buffer pH 7.0.
Temperature optima were determined by measuring A400 absorbance after 1 h incubation at temperatures in the range of 20 to 70° C. In these experiments the pH was controlled using 50 mM Bis-Tris buffer pH 7.0. Copper concentrations of (20 or 50 μM) were used to prevent chemical oxidation as background activity at higher copper concentrations.

Data set [2] is described as follows: Conversion of syringic acid, sinapic acid and syringol by crude PPOs, absorbance at 400 nm. The data set is classed as biochemical. Conditions: 4 mM substrate, crude PPO 8.2 μg/mL, pH 6.0 or 7.0, 50 μM CuSO4, room temperature, 2, 22 and 118 h. As for the experimental part:
Syringic acid, sinapic acid and syringol (4 mM) were incubated with crude PPO2, 4, 6 and 7 from Example 5 in 100 mM BisTris buffer pH 6.0 or 7.0 with 50 μM CuSO4. Crude PPOs were dosed on target protein with a final concentration of 8.2 μg/mL. Substrate blanks prepared without the addition of enzyme and enzyme blanks without the addition of substrate were included. Incubations were performed in microtiterplates with a total reaction volume of 150 μL at room temperature for approximately 120 h. After 2, 22 and 118 h absorbance at 400 nm was measured.

B1: PPO4: Myceliophthora thermophila C1 polyphenoloxidase with demethylating activity, mature form SEQ ID NO: 37 (protein, listed as Myceliophthora thermophila)
chain: DAVLDLQEKGRPAIDAQLAKSTTCTKEKLQVRREWGDISAEEKKAYIAAMLCIMEKPSRLDPNQFPGAKSRYDDFVVVHMNQTLSIHGTGNFLSWHRYYTWVFERALQEECGYNGTQPYWDWGRWADDPENSPIFDGSDTSLSGNGEYIEHRASGFIPAGNGGGCVKSGPFKDMVVHLGPVAPAIDPAPPANPRRDGYGDNPRCLRRDISNQLSSKYARTQDIVDLITTSADIGTFQTVMQGAGGFGVGPGGMGVHAAGHFTIAGDPGGDFYTSPNDPAFWVHHGMIDRTWTIWQSQDLDNRLQVIAGGSSMMGGPPQTLDDPVDLGVVADKVYPIRDLVSVVDGPFCYVYE
B1 registered a pHopt in data set [1] (3-methoxycatechol oxidation, room temperature, 10 μM CuSO4, Carmody buffers pH3-9) of 7.0. Besides, in data set [1] (>50% of maximum activity), the T range was 30-60 °C and the pH range is listed as 5.0-7.5. Moreover, in data set [1] (>90% of maximum activity), the “[CuSO4] range” value fell in the range of 20 to 1000 µM. Also, the Topt in data set [1] (A400 after 1 h incubation, 20 to 70° C., 50 mM Bis-Tris pH 7.0, 20 or 50 μM copper) came out at 55 °C. For the same molecule, the “[CuSO4]opt” value in data set [1] (at optimal pH, 50 mM Bis-Tris buffer pH 7.0, CuSO4 varied 1-1000 μM) stood at 200 µM. In addition, the “Conversion of substrates (absorbance at 400 nm)” value in data set [2] is given as “only able to use syringic acid as a substrate”.
